Laboratory results published in patent publication US20230250154A1 (CYTONICS, published 2023).

Experiments:
Cathepsin G = biological target: T1, Cathepsin G (UniProt P08311 21-244); test: cell-based or functional assay
T1 sequence (looked up): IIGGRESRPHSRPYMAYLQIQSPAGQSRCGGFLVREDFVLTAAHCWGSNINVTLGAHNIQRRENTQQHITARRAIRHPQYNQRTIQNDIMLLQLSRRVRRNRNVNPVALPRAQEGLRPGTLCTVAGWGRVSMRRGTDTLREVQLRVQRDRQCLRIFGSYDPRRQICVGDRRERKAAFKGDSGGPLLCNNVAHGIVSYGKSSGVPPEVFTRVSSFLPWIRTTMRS

Elastase = test: cell-based or functional assay

B1: Variant A2M, bait region SEQ ID NO 137 (other)
chain: SVSGKPQYMVLVPSLLHTETTEKGCVLLSYLNETVTVSASLESVRGNRSLFTDLEAENDVLHCVAFAVPKSSSNEEVMFLTVQVKGPTQEFKKRTTVMVKNEDSLVFVQTDKSIYKPGQTVKFRVVSMDENFHPLNELIPLVYIQDPKGNRIAQWQSFQLEGGLKQFSFPLSSEPFQGSYKVVVQKKSGGRTEHPFTVEEFVLPKFEVQVTVPKIITILEEEMNVSVCGLYTYGKPVPGHVTVSICRKYSDASDCHGEDSQAFCEKFSGQLNSHGCFYQQVKTKVFQLKRKEYEMKLHTEAQIQEEGTVVELTGRQSSEITRTITKLSFVKVDSHFRQGIPFFGQVRLVDGKGVPIPNKVIFIRGNEANYYSNATTDEHGLVQFSINTTNVMGTSLTVRVNYKDRSPCYGYQWVSEEHEEAHHTAYLVFSPSKSFVHLEPMSHELPCGHTQTVQAHYILNGGTLLGLKKLSFYYLIMAKGGIVRTGTHGLLVKQEDMKGHFSISIPVKSDIAPVARLLIYAVLPTGDVIGDSAKYDVENCLANKVDLSFSPSQSLPASHAHLRVTAAPQSVCALRAVDQSVLLMKPDAELSASSVYNLLPEKDLTGFPGPLNDQDDEDCINRHNVYINGITYTPVSSTNEKDMYSFLEDMGLKAFTNSKIRKPKMCPQLEQYEMHGPSEDLVVQIKEEEGLGSIPENFFGVSELEGRGSVEEPHTKLRKYFPETWIWDLVVVNSAGVAEVGVTVPDTITEWKAGAFCLSEDAGLGISSTASLRAFQPFFVELTMPYSVIRGEAFTLKATVLNYLPKCIRVSVQLEASPAFLAVPVEKEQAPHCICANGRQTVSWAVTPKSLGNVNFTVSAEALESQELCGTEVPSVPEHGRKDTVIKPLLVEPEGLEKETTFNSLLCPSGGEVSEELSLKLPPNVVEESARASVSVLGDILGSAMQNTQNLLQMPYGCGEQNMVLFAPNIYVLDYLNETQQLTPEIKSKAIGYLNTGYQRQLNYKHYDGSYSTFGERYGRNQGNTWLTAFVLKTFAQARAYIFIDEAHITQALIWLSQRQKDNGCFRSSGSLLNNAIKGGVEDEVTLSAYITIALLEIPLTVTHPVVRNALFCLESAWKTAQEGDHGSHVYTKALLAYAFALAGNQDKRKEVLKSLNEEAVKKDNSVHWERPQKPKAPVGHFYEPQAPSAEVEMTSYVLLAYLTAQPAPTSEDLTSATNIVKWITKQQNAQGGFSSTQDTVVALHALSKYGAATFTRTGKAAQVTIQSSGTFSSKFQVDNNNRLLLQQVSLPELPGEYSMKVTGEGCVYLQTSLKYNILPEKEEFPFALGVQTLPQTCDEPKAHTSFQISLSVSYTGSRSASNMAIVDVKMVSGFIPLKPTVKMLERSNHVSRTEVSSNHVLIYLDKVSNQTLSLFFTVLQDVPVRDLKPAIVKVYDYYETDEFAIAEYNAPCSKDLGNADYKDDDDKGASHHHHHH
Protease Inhibition (% of WT) (Cathepsin G): 450 % of WT | Protease Inhibition (% of WT) (Elastase): 100 % of WT

B2: Variant A2M, bait region SEQ ID NO 124 (other)
chain: SVSGKPQYMVLVPSLLHTETTEKGCVLLSYLNETVTVSASLESVRGNRSLFTDLEAENDVLHCVAFAVPKSSSNEEVMFLTVQVKGPTQEFKKRTTVMVKNEDSLVFVQTDKSIYKPGQTVKFRVVSMDENFHPLNELIPLVYIQDPKGNRIAQWQSFQLEGGLKQFSFPLSSEPFQGSYKVVVQKKSGGRTEHPFTVEEFVLPKFEVQVTVPKIITILEEEMNVSVCGLYTYGKPVPGHVTVSICRKYSDASDCHGEDSQAFCEKFSGQLNSHGCFYQQVKTKVFQLKRKEYEMKLHTEAQIQEEGTVVELTGRQSSEITRTITKLSFVKVDSHFRQGIPFFGQVRLVDGKGVPIPNKVIFIRGNEANYYSNATTDEHGLVQFSINTTNVMGTSLTVRVNYKDRSPCYGYQWVSEEHEEAHHTAYLVFSPSKSFVHLEPMSHELPCGHTQTVQAHYILNGGTLLGLKKLSFYYLIMAKGGIVRTGTHGLLVKQEDMKGHFSISIPVKSDIAPVARLLIYAVLPTGDVIGDSAKYDVENCLANKVDLSFSPSQSLPASHAHLRVTAAPQSVCALRAVDQSVLLMKPDAELSASSVYNLLPEKDLTGFPGPLNDQDDEDCINRHNVYINGITYTPVSSTNEKDMYSFLEDMGLKAFTNSKIRKPKMCPQLEQYEMHGPKEEEGLGSSELEGRGSEAIPMSIPTIPENFFGVVEEPHTKLRKYFPETWIWDLVVVNSAGVAEVGVTVPDTITEWKAGAFCLSEDAGLGISSTASLRAFQPFFVELTMPYSVIRGEAFTLKATVLNYLPKCIRVSVQLEASPAFLAVPVEKEQAPHCICANGRQTVSWAVTPKSLGNVNFTVSAEALESQELCGTEVPSVPEHGRKDTVIKPLLVEPEGLEKETTFNSLLCPSGGEVSEELSLKLPPNVVEESARASVSVLGDILGSAMQNTQNLLQMPYGCGEQNMVLFAPNIYVLDYLNETQQLTPEIKSKAIGYLNTGYQRQLNYKHYDGSYSTFGERYGRNQGNTWLTAFVLKTFAQARAYIFIDEAHITQALIWLSQRQKDNGCFRSSGSLLNNAIKGGVEDEVTLSAYITIALLEIPLTVTHPVVRNALFCLESAWKTAQEGDHGSHVYTKALLAYAFALAGNQDKRKEVLKSLNEEAVKKDNSVHWERPQKPKAPVGHFYEPQAPSAEVEMTSYVLLAYLTAQPAPTSEDLTSATNIVKWITKQQNAQGGFSSTQDTVVALHALSKYGAATFTRTGKAAQVTIQSSGTFSSKFQVDNNNRLLLQQVSLPELPGEYSMKVTGEGCVYLQTSLKYNILPEKEEFPFALGVQTLPQTCDEPKAHTSFQISLSVSYTGSRSASNMAIVDVKMVSGFIPLKPTVKMLERSNHVSRTEVSSNHVLIYLDKVSNQTLSLFFTVLQDVPVRDLKPAIVKVYDYYETDEFAIAEYNAPCSKDLGNADYKDDDDKGASHHHHHH
Protease Inhibition (% of WT) (Cathepsin G): 250 % of WT | Protease Inhibition (% of WT) (Elastase): 75 % of WT

B3: Variant A2M, bait region SEQ ID NO 143 (other)
chain: SVSGKPQYMVLVPSLLHTETTEKGCVLLSYLNETVTVSASLESVRGNRSLFTDLEAENDVLHCVAFAVPKSSSNEEVMFLTVQVKGPTQEFKKRTTVMVKNEDSLVFVQTDKSIYKPGQTVKFRVVSMDENFHPLNELIPLVYIQDPKGNRIAQWQSFQLEGGLKQFSFPLSSEPFQGSYKVVVQKKSGGRTEHPFTVEEFVLPKFEVQVTVPKIITILEEEMNVSVCGLYTYGKPVPGHVTVSICRKYSDASDCHGEDSQAFCEKFSGQLNSHGCFYQQVKTKVFQLKRKEYEMKLHTEAQIQEEGTVVELTGRQSSEITRTITKLSFVKVDSHFRQGIPFFGQVRLVDGKGVPIPNKVIFIRGNEANYYSNATTDEHGLVQFSINTTNVMGTSLTVRVNYKDRSPCYGYQWVSEEHEEAHHTAYLVFSPSKSFVHLEPMSHELPCGHTQTVQAHYILNGGTLLGLKKLSFYYLIMAKGGIVRTGTHGLLVKQEDMKGHFSISIPVKSDIAPVARLLIYAVLPTGDVIGDSAKYDVENCLANKVDLSFSPSQSLPASHAHLRVTAAPQSVCALRAVDQSVLLMKPDAELSASSVYNLLPEKDLTGFPGPLNDQDDEDCINRHNVYINGITYTPVSSTNEKDMYSFLEDMGLKAFTNSKIRKPKMCPQLEQYEMHGPIPENFFGVSEDLVVQIEGEGEGEGEAIPMSIPTEPHTKLRKYFPETWIWDLVVVNSAGVAEVGVTVPDTITEWKAGAFCLSEDAGLGISSTASLRAFQPFFVELTMPYSVIRGEAFTLKATVLNYLPKCIRVSVQLEASPAFLAVPVEKEQAPHCICANGRQTVSWAVTPKSLGNVNFTVSAEALESQELCGTEVPSVPEHGRKDTVIKPLLVEPEGLEKETTFNSLLCPSGGEVSEELSLKLPPNVVEESARASVSVLGDILGSAMQNTQNLLQMPYGCGEQNMVLFAPNIYVLDYLNETQQLTPEIKSKAIGYLNTGYQRQLNYKHYDGSYSTFGERYGRNQGNTWLTAFVLKTFAQARAYIFIDEAHITQALIWLSQRQKDNGCFRSSGSLLNNAIKGGVEDEVTLSAYITIALLEIPLTVTHPVVRNALFCLESAWKTAQEGDHGSHVYTKALLAYAFALAGNQDKRKEVLKSLNEEAVKKDNSVHWERPQKPKAPVGHFYEPQAPSAEVEMTSYVLLAYLTAQPAPTSEDLTSATNIVKWITKQQNAQGGFSSTQDTVVALHALSKYGAATFTRTGKAAQVTIQSSGTFSSKFQVDNNNRLLLQQVSLPELPGEYSMKVTGEGCVYLQTSLKYNILPEKEEFPFALGVQTLPQTCDEPKAHTSFQISLSVSYTGSRSASNMAIVDVKMVSGFIPLKPTVKMLERSNHVSRTEVSSNHVLIYLDKVSNQTLSLFFTVLQDVPVRDLKPAIVKVYDYYETDEFAIAEYNAPCSKDLGNADYKDDDDKGASHHHHHH
Protease Inhibition (% of WT) (Cathepsin G): 350 % of WT | Protease Inhibition (% of WT) (Elastase): 250 % of WT

B4: Variant A2M, bait region SEQ ID NO 141 (other)
chain: SVSGKPQYMVLVPSLLHTETTEKGCVLLSYLNETVTVSASLESVRGNRSLFTDLEAENDVLHCVAFAVPKSSSNEEVMFLTVQVKGPTQEFKKRTTVMVKNEDSLVFVQTDKSIYKPGQTVKFRVVSMDENFHPLNELIPLVYIQDPKGNRIAQWQSFQLEGGLKQFSFPLSSEPFQGSYKVVVQKKSGGRTEHPFTVEEFVLPKFEVQVTVPKIITILEEEMNVSVCGLYTYGKPVPGHVTVSICRKYSDASDCHGEDSQAFCEKFSGQLNSHGCFYQQVKTKVFQLKRKEYEMKLHTEAQIQEEGTVVELTGRQSSEITRTITKLSFVKVDSHFRQGIPFFGQVRLVDGKGVPIPNKVIFIRGNEANYYSNATTDEHGLVQFSINTTNVMGTSLTVRVNYKDRSPCYGYQWVSEEHEEAHHTAYLVFSPSKSFVHLEPMSHELPCGHTQTVQAHYILNGGTLLGLKKLSFYYLIMAKGGIVRTGTHGLLVKQEDMKGHFSISIPVKSDIAPVARLLIYAVLPTGDVIGDSAKYDVENCLANKVDLSFSPSQSLPASHAHLRVTAAPQSVCALRAVDQSVLLMKPDAELSASSVYNLLPEKDLTGFPGPLNDQDDEDCINRHNVYINGITYTPVSSTNEKDMYSFLEDMGLKAFTNSKIRKPKMCPQLEQYEMHGPEAIPMSIPTSELEGRGSIPENFFGVEGEGEGEGEPHTKLRKYFPETWIWDLVVVNSAGVAEVGVTVPDTITEWKAGAFCLSEDAGLGISSTASLRAFQPFFVELTMPYSVIRGEAFTLKATVLNYLPKCIRVSVQLEASPAFLAVPVEKEQAPHCICANGRQTVSWAVTPKSLGNVNFTVSAEALESQELCGTEVPSVPEHGRKDTVIKPLLVEPEGLEKETTFNSLLCPSGGEVSEELSLKLPPNVVEESARASVSVLGDILGSAMQNTQNLLQMPYGCGEQNMVLFAPNIYVLDYLNETQQLTPEIKSKAIGYLNTGYQRQLNYKHYDGSYSTFGERYGRNQGNTWLTAFVLKTFAQARAYIFIDEAHITQALIWLSQRQKDNGCFRSSGSLLNNAIKGGVEDEVTLSAYITIALLEIPLTVTHPVVRNALFCLESAWKTAQEGDHGSHVYTKALLAYAFALAGNQDKRKEVLKSLNEEAVKKDNSVHWERPQKPKAPVGHFYEPQAPSAEVEMTSYVLLAYLTAQPAPTSEDLTSATNIVKWITKQQNAQGGFSSTQDTVVALHALSKYGAATFTRTGKAAQVTIQSSGTFSSKFQVDNNNRLLLQQVSLPELPGEYSMKVTGEGCVYLQTSLKYNILPEKEEFPFALGVQTLPQTCDEPKAHTSFQISLSVSYTGSRSASNMAIVDVKMVSGFIPLKPTVKMLERSNHVSRTEVSSNHVLIYLDKVSNQTLSLFFTVLQDVPVRDLKPAIVKVYDYYETDEFAIAEYNAPCSKDLGNADYKDDDDKGASHHHHHH
Protease Inhibition (% of WT) (Cathepsin G): 100 % of WT | Protease Inhibition (% of WT) (Elastase): 75 % of WT
